Measurements reported in patent US20120014870A1 (FORERUNNER PHARMA RESEARCH, published 2012).

T1: HA-tagged full-length human LGR7 expressed on cells (HA-LGR7/DG44, HA-LGR7/BaF3) (human, UniProt Q9HBX9 1-757)
T1 construct: Full-length human LGR7 with an N-terminal HA tag, forcedly expressed in DG44 (CHO-derived) or Ba/F3 cells; also called HA-LGR7/DG#24; HA-LGR7/DG44#24
T1 sequence: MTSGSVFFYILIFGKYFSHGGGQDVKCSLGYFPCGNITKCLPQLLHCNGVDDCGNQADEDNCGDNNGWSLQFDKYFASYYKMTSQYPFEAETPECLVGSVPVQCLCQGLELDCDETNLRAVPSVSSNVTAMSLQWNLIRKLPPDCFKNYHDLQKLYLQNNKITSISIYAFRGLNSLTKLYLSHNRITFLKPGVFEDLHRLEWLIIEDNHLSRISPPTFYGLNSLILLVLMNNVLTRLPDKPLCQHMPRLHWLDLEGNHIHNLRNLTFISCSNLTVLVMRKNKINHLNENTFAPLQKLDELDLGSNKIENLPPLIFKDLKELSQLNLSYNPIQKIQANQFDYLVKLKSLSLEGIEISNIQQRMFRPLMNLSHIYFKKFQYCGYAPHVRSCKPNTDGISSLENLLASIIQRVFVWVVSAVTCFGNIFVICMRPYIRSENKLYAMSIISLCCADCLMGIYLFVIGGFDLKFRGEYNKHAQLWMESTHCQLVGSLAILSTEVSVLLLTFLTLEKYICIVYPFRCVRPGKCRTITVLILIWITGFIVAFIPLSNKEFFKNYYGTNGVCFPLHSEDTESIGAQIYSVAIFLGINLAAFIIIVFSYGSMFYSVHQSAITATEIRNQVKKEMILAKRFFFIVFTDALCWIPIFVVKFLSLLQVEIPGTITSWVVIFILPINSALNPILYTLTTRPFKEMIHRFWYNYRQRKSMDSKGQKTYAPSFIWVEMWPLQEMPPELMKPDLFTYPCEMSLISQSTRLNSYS

B1: 22SD7 (antibody, IgG2a, V domains shown)
VH: QVQLQQPGAELVRPGASVKLSCKASGYTFTSYWMNWVKQRPEQGLEWIGRIDPYDSETHYNQKFKDKAILTVDKSSSTAYMQLSSLTSEDSAVYYCARWEVVAPWDYWGQGTTLTVSS
VL: DIVMTQAAPSVPVTPGESVSISCRSSKSLLHSNGNTYLYWFLQRPGQSPQLLIYRMSNLASGVPDRFSGSGSGTAFTLRISRVEAEDVGVYYCMQHLEYPWTFGGGTKLEIK
notes: Mouse hybridoma antibody, isotype IgG2a; also called anti-LGR7 monoclonal antibody 22SD7
B2: 22DA23 (antibody, IgG1, V domains shown)
VH: EIQLQQSRPELVRPGASVKVSCQASGYAFTNYNMYWVKQSHGKSLEWIGYIDPYNDDTTYNQKFKGKATLTVDKSSSTAYMHLNSLTSEDSAVFYCARFRLGYYAMDYWGQGASVTVSS
VL: DIVLTQSPASLAVSLGQRATISCKASQSVDYDLDSYMNWYQQKPGQPPKLLIYVASNLESGIPARFSGSGSGTDFTLNIHPVEEEDAATYYCQQSNEDPFTFGSGTKLEIK
notes: Mouse hybridoma antibody, isotype IgG1; also called anti-human LGR7 monoclonal antibody 22DA23
B3: 22DA17 (antibody, IgG2b, V domains shown)
VH: QVQLQQSGAELVRPGVSVKLSCKASGYSLTTYWMNWVKQRPGQGLEWIGMIHPSDSETVINQKFKDKATLTVDKSSSTAYMQLSSPTSEDSAVYYCARWDYDYYFDYWGQGTTLTVSS
VL: DVLMTQTPLSLPVSLGDQASISCRSSQSIVHSNGNTYLEWYLQKPGQSPNLLIYKVSNRFSGVPDRFSGSGSGTDFTLKISRVEAEDLGVYYCFQGSHVPFTFGSGTKLEIK
notes: Mouse hybridoma antibody, isotype IgG2b; also called Bio-22DA17 (biotinylated form)

biological target: T1, HA-tagged full-length human LGR7 …; experiment: flow cytometry, hybridoma supernatant on LGR7-expressing DG44 cells against parental DG44 cells
Procedure: The binding of the obtained hybridomas to human LGR7/DG44 cells was evaluated by flow cytometry. The cell line expressing human LGR7 suspended in FACS buffer (2% FBS/PBS/0.05% NaN₃) was diluted to 1×10⁶ cells/mL using FACS buffer, and this was aliquoted into a Falcon 353910 round-bottom 96-well plate at 50 μL/well. The hybridoma culture supernatant diluted to a suitable concentration was added to the wells containing the cells, and this was reacted for 60 minutes on ice. Next, the cells were rinsed once with FACS buffer. As a secondary antibody, a goat F(ab′)₂ fragment anti-mouse IgG Fcγ-FITC (Beckman Coulter) was added to the wells containing the cells, and this was reacted for 30 minutes on ice. After the reaction, the supernatant was removed by centrifugation, and the cells were suspended in 100 μL of FACS buffer, and subjected to flow cytometry. The FACS Calibur (Becton Dickinson) was used for the flow cytometry. A gate for the viable cell population was established using a forward scatter/side scatter dot blot, and an FL1 histogram was produced for the cells included in the population, and their binding activity was evaluated.
The hybridoma supernatants were reacted with DG44 cells induced to express LGR7 and the parental DG44 cells, respectively. Thus, hybridomas that specifically react with LGR7-expressing cells were obtained. The hybridomas from the wells were made into single clones by the limiting dilution method. The isotype of each antibody was analyzed using an IsoStrip® mouse monoclonal antibody isotyping kit (Roche Diagnostics). As a result, the isotype of 22DA6, 22DA7, 22DA11, 22DA12, 22DA23, and 22DA24 is IgG1; and the isotype of 22DA4, 22DA10, 22SD7, 22SD25, 22SD31, and 22SD48 is IgG2a; and the isotype of 22DA17 and 22DA20 is IgG2b. Expansion culture of a single-clone hybridoma was performed, and then the antibody was purified from the culture supernatant using a protein G column according to the manual. The purified antibody was subjected to protein quantification by DC Protein Assay, etc.

binding result	Binder
binds	B1
binds	B2
binds	B3
